Experimental data: paper PMC6358694, “Crystal structure of the WD40 domain dimer of LRRK2” (Proceedings of the National Academy of Sciences of the …, 2019)

Legend:
[1] = molecular target: the molecule itself; experiment: SEC; gel filtration chromatography; WT serially diluted from 2 mg/mL to 0.25 mg/mL; mutants compared with WT at matched concentrations by elution position
[2] = molecular target: the molecule itself; experiment: SEC-MALS; MBP-tagged WD40 domain injected at 2 mg/mL; in-line size exclusion column, three-angle light scattering and refractive index detectors

Protein | binding result [1] | stoichiometry N [2]
LRRK2 WD40 domain mutant M2408E (domain or fragment, human, UniProt Q5S007 2142-2527, looked up, LRRK2, human, WD40 domain, residues 2142-2527, with M2408E; Probably MBP-tagged and from Sf9 as the WT; methods in the SI Appendix; source: purified proteins) RRILLPKNVIVECMVATHHNSRNASIWLGCGHTDRGQLSFLDLNTEGYTSEEVADSRILCLALVHLPVEKESWIVSGTQSGTLLVINTEDGKKRHTLEKMTDSVTCLYCNSFSKQSKQKNFLLVGTADGKLAIFEDKTVKLKGAAPLKILNIGNVSTPLMCLSESTNSTERNVMWGGCGTKIFSFSNDFTIQKLIETRTSQLFSYAAFSDSNIITVVVDTALYIAKQNSPVVEVWDKKTEKLCGLIDCVHFLREVMVKENKESKHKESYSGRVKTLCLQKNTALWIGTGGGHILLLDLSTRRLIRVIYNFCNSVRVMMTAQLGSLKNVMLVLGYNRKNTEGTQKQKEIQSCLTVWDINLPHEVQNLEKHIEVRKELAEKMRRTSVE | binds | –
LRRK2 WD40 domain PD-associated variant Y2189C (domain or fragment, human, UniProt Q5S007 2142-2527, looked up, LRRK2, human, WD40 domain, residues 2142-2527, with the PD-associated variant Y2189C; Probably MBP-tagged and from Sf9 as the WT; methods in the SI Appendix; source: purified proteins) RRILLPKNVIVECMVATHHNSRNASIWLGCGHTDRGQLSFLDLNTEGCTSEEVADSRILCLALVHLPVEKESWIVSGTQSGTLLVINTEDGKKRHTLEKMTDSVTCLYCNSFSKQSKQKNFLLVGTADGKLAIFEDKTVKLKGAAPLKILNIGNVSTPLMCLSESTNSTERNVMWGGCGTKIFSFSNDFTIQKLIETRTSQLFSYAAFSDSNIITVVVDTALYIAKQNSPVVEVWDKKTEKLCGLIDCVHFLREVMVKENKESKHKMSYSGRVKTLCLQKNTALWIGTGGGHILLLDLSTRRLIRVIYNFCNSVRVMMTAQLGSLKNVMLVLGYNRKNTEGTQKQKEIQSCLTVWDINLPHEVQNLEKHIEVRKELAEKMRRTSVE | binds | –
MBP-tagged LRRK2 WD40 domain, wild type (domain or fragment, human, UniProt Q5S007 2142-2527, looked up, leucine-rich repeat kinase 2 (LRRK2), human, WD40 domain, residues 2142-2527; MBP-tagged monomer calculated at about 83 kDa; The tag is named for the MALS runs; also called WT WD40 domain; source: Sf9 insect cells via baculovirus infection, purified to homogeneity) RRILLPKNVIVECMVATHHNSRNASIWLGCGHTDRGQLSFLDLNTEGYTSEEVADSRILCLALVHLPVEKESWIVSGTQSGTLLVINTEDGKKRHTLEKMTDSVTCLYCNSFSKQSKQKNFLLVGTADGKLAIFEDKTVKLKGAAPLKILNIGNVSTPLMCLSESTNSTERNVMWGGCGTKIFSFSNDFTIQKLIETRTSQLFSYAAFSDSNIITVVVDTALYIAKQNSPVVEVWDKKTEKLCGLIDCVHFLREVMVKENKESKHKMSYSGRVKTLCLQKNTALWIGTGGGHILLLDLSTRRLIRVIYNFCNSVRVMMTAQLGSLKNVMLVLGYNRKNTEGTQKQKEIQSCLTVWDINLPHEVQNLEKHIEVRKELAEKMRRTSVE | – | 2
